Where two headings read alike, the source gives them in different places. Bridges are numbered along the chain shown (N, C = ends). Where no end group is shown, it is not given here.
Key:
[1] = target: T1, sEGFR-MMB (dimeric soluble EGFR ectodomain mimetibody) (human); experiment: phage ELISA, coated sEGFR-MMB
T1 construct: also called sEGFR mimetibody; sEGFR-Fc

biotinylated sEGFR-MMB = target: T2, biotinylated sEGFR-MMB (human, biotinylated with sulfo-NHS-LC-biotin (sites not given)); experiment: phage ELISA, biotinylated receptor captured on streptavidin
T2 construct: Captured on streptavidin-coated wells in the ELISA; also called b-sEGFR-MMB; b-sEGFR MMB

biotinylated sEGFR-His6 = target: T3, biotinylated sEGFR-His6 (human, UniProt P00533 25-645, biotinylated (sites not given)); experiment: as above
T3 construct: Captured on streptavidin-coated wells in the ELISA; also called b-sEGFR-His; b-sEGFR-His6

b-sEGFR-strep = target: T4, b-sEGFR-strep (human, UniProt P00533, biotinylated, sites not given); experiment: as above
T4 construct: soluble ectodomain, monomeric, strep II tag; captured on streptavidin-coated wells; also called strepII-tagged sEGFR; strep II-tagged sEGFR purchased from Research Diagnostics

[2] = target: T1, sEGFR-MMB (dimeric soluble EGFR …); experiment: phage ELISA on coated sEGFR-MMB; second bar with EGF 10 ug/ml as competitor
[3] = target: T1, sEGFR-MMB (dimeric soluble EGFR …); experiment: phage ELISA on coated sEGFR-MMB, chemiluminescence; background typically <200 units
Streptavidin = target: T5, Streptavidin; experiment: phage ELISA on streptavidin alone [C]
T5 construct: also called Streptavidin alone; SA

Control-MMB (CNTO 360) = target: T6, Control-MMB (CNTO 360) (Homo sapiens (Human), UniProt P0DOX5 111-449 = IgG part); experiment: phage ELISA on coated Control-MMB [A]
T6 construct: Described as human IgG1 heavy chain dimer absent the variable and most of the CH1 domains; also called blank mimetibody scaffold protein

[4] = target: T1, sEGFR-MMB (dimeric soluble EGFR …); experiment: phage ELISA on coated sEGFR-MMB, chemiluminescence; background typically <200 units; remark: listed apart in the source
[5] = target: T7, Human extracellular EGFR-His6 (sEGFR-His6) (human, UniProt P00533 25-645); experiment: phage ELISA, coated sEGFR-His6
T7 construct: Monomeric, expressed in HEK293E, glycosylated; also called sEGFR-6×His; monomeric sEGFR

T2 sequence (chain, as listed by the source limits assumed): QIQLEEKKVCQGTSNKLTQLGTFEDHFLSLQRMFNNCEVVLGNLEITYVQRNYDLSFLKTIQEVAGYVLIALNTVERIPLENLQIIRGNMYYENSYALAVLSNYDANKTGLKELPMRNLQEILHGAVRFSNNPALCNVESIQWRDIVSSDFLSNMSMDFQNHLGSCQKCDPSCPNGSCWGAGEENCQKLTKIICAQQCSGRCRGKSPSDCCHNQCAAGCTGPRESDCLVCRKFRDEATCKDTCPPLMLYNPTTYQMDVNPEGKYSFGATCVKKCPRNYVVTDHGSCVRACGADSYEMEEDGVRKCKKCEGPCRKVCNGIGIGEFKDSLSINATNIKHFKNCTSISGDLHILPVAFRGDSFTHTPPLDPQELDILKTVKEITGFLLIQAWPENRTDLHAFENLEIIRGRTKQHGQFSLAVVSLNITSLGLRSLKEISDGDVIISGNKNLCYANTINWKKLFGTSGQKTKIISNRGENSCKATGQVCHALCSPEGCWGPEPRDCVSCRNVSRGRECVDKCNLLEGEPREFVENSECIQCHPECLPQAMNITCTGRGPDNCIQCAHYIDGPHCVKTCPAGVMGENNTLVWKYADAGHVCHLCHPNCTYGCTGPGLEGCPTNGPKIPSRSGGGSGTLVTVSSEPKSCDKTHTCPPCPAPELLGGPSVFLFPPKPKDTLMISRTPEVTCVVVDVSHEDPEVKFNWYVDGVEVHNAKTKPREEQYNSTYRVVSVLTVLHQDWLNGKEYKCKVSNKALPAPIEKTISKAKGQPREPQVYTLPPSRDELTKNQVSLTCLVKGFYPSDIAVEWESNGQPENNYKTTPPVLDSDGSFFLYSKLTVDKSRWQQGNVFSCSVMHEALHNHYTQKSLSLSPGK
T1 sequence (chain, as listed by the source limits assumed): as above

B1: phage P193 (pIII CNL1-11) (peptide)
chain: AGSYYWGYTVDIRRGG
notes: Tested as whole phage displaying the peptide on pIII; also called PHPEP193; not shown: M13 phage coat protein pIII, mature (TVESC...)
- binding result [1]: binds

B2: phage P143 (pIII CNL5) (peptide)
chain: AGVLCSNFYHPLCHSGG
notes: Tested as whole phage displaying the peptide on pIII; also called PP143; not shown: M13 phage coat protein pIII, mature (TVESC...)
- binding result (biotinylated sEGFR-MMB): binds
- binding result (biotinylated sEGFR-His6): binds
- binding result (b-sEGFR-strep): binds
- binding result [2]: binds

B3: S20 library phage hit SEQ ID NO: 49 (peptide)
chain: GGGLLCATTSFRDWFVCFT
notes: Tested as whole phage, pIX phagemid display
- ELISA signal [3]: 4510 units

B4: phage P176 (pIX S20) (peptide)
chain: GGGKTCVSTTFDLWFVCFA
modifications: disulfide 6-17; also: displayed on whole phage via pIX
notes: Tested as whole phage, pIX phagemid display; also called PP176
- ELISA signal [3]: 37400 units
- binding result (Streptavidin): no binding
- binding result (Control-MMB (CNTO 360)): no binding

B5: phage P177 (pIX S16) (peptide)
peptide: GGGDACTMVFLWCSLGGGSGGSGG
modifications: disulfide 6-13
notes: Tested as whole phage, pIX phagemid display; also called PP177; not shown: M13 coat protein pIX (display carrier at the C end)
- ELISA signal [4]: 8660 units

B6: S20 library phage hit SEQ ID NO: 46 (peptide)
chain: GGGYICTPSDIDSWYICYL
notes: as for B3
- ELISA signal [3]: 6620 units

B7: phage P146 (pIII CNL5) (peptide)
chain: AGTLCRSFFHPLCYAGG
notes: Tested as whole phage displaying the peptide on pIII; also called PP146; PHPEP146; not shown: M13 phage coat protein pIII, mature (TVESC...)
- binding result (biotinylated sEGFR-MMB): binds
- binding result (biotinylated sEGFR-His6): binds
- binding result (b-sEGFR-strep): binds
- binding result [2]: binds

B8: S20 library phage hit SEQ ID NO: 43 (peptide)
chain: GGGPTCDSATRRVLTICAD
notes: as for B3
- ELISA signal [3]: 5420 units

B9: phage P194 (pIII CNL1-11) (peptide)
chain: AGSECFPLAPDWLSCILGG
notes: Tested as whole phage displaying the peptide on pIII; also called PHPEP194; not shown: M13 phage coat protein pIII, mature (TVESC...)
- binding result [5]: binds
- binding result [1]: binds

B10: phage P145 (pIII CNL5) (peptide)
chain: AGVLCHRYYHPICYTGG
notes: Tested as whole phage displaying the peptide on pIII; also called PP145; PHPEP145; not shown: M13 phage coat protein pIII, mature (TVESC...)
- binding result (biotinylated sEGFR-MMB): binds
- binding result (biotinylated sEGFR-His6): binds
- binding result (b-sEGFR-strep): binds
- binding result [2]: binds

B11: S20 library phage hit SEQ ID NO: 47 (peptide)
chain: GGGSVCVGTAFPGWMVCGP
notes: as for B3
- ELISA signal [3]: 4770 units

B12: S20 library phage hit SEQ ID NO: 45 (peptide)
chain: GGGDSCCSFLTDGTVVCSL
notes: as for B3
- ELISA signal [3]: 9540 units

B13: phage P178 (pIX S17) (peptide)
peptide: GGGRWCYFWWITICELGGGSGGSGG
modifications: disulfide 6-14
notes: Tested as whole phage, pIX phagemid display; also called PP178; not shown: M13 coat protein pIX (display carrier at the C end)
- ELISA signal [4]: 7910 units

B14: S20 library phage hit SEQ ID NO: 44 (peptide)
chain: GGGWMCFLEGYGASLMCQC
notes: as for B3
- ELISA signal [3]: 4800 units
